Laboratory results: patent US20090170763A1 (KENJI KANGAWA, published 2009)
Square brackets hold non-standard residues; d marks the D form. Ends that are not written are not given here. * marks the point of attachment. Trt = c1ccc(C(c2ccccc2)(c2ccccc2)*)cc1; Octanoyl = CCCCCCCC(=O)*; Aib = CC(C)(N)C(=O)O; Octyl = CCCCCCCC*

B1: [2-^DNal^3]-hGhrelin (peptide)
peptide: GSXFLSPEHQRVQQRKESKKPPAKLQPR
modifications: position 3 (X) is 2-D-naphthylalanine (D-Nal)
B2: [Lys^6]-Ghrelin (1-6)-amide (peptide)
peptide: GSS(Octanoyl)FLK-NH2
modifications: N-terminus assumed
SMILES: CCCCCCCC(=O)OC[C@H](NC(=O)[C@H](CO)NC(=O)CN)C(=O)N[C@@H](Cc1ccccc1)C(=O)N[C@@H](CC(C)C)C(=O)N[C@@H](CCCCN)C(N)=O
B3: [Lys^7]-Ghrelin (1-7)-amide (peptide)
peptide: GSS(Octanoyl)FLSK-NH2
modifications: N-terminus assumed
SMILES: CCCCCCCC(=O)OC[C@H](NC(=O)[C@H](CO)NC(=O)CN)C(=O)N[C@@H](Cc1ccccc1)C(=O)N[C@@H](CC(C)C)C(=O)N[C@@H](CO)C(=O)N[C@@H](CCCCN)C(N)=O
B4: [Cha^3]-hGhrelin (peptide)
peptide: GSXFLSPEHQRVQQRKESKKPPAKLQPR
modifications: position 3 (X) is cyclohexylalanine (Cha)
B5: [2-^LNal^3]-hGhrelin (peptide)
peptide: GSXFLSPEHQRVQQRKESKKPPAKLQPR
modifications: position 3 (X) is 2-L-naphthylalanine (Nal)
B6: [Lys^2]-Ghrelin (1-7)-amide (peptide)
peptide: GKS(Octanoyl)FLSP-NH2
modifications: N-terminus assumed
SMILES: CCCCCCCC(=O)OC[C@H](NC(=O)[C@H](CCCCN)NC(=O)CN)C(=O)N[C@@H](Cc1ccccc1)C(=O)N[C@@H](CC(C)C)C(=O)N[C@@H](CO)C(=O)N1CCC[C@H]1C(N)=O
B7: [Cys^3(Octyl)]-rGhrelin (peptide)
peptide: GSC(Octyl)FLSPEHQKAQQRKESKKPPAKLQPR
B8: [Adod^3]-hGhrelin (peptide)
peptide: GSXFLSPEHQRVQQRKESKKPPAKLQPR
modifications: position 3 (X) is 2-aminododecanoic acid (Adod; side chain n-C10H21)
B9: [Aib^1,His^2,Ser^3(Octyl),Lys^5]-Ghrelin (1-5)-amide (peptide)
peptide: [Aib]HS(Octyl)FK-NH2
modifications: N-terminus assumed
SMILES: CCCCCCCCOC[C@H](NC(=O)[C@H](Cc1c[nH]cn1)NC(=O)C(C)(C)N)C(=O)N[C@@H](Cc1ccccc1)C(=O)N[C@@H](CCCCN)C(N)=O
B10: [Gly^2]-Ghrelin (1-7)-amide (peptide)
peptide: GGS(Octanoyl)FLSP-NH2
modifications: N-terminus assumed
SMILES: CCCCCCCC(=O)OC[C@H](NC(=O)CNC(=O)CN)C(=O)N[C@@H](Cc1ccccc1)C(=O)N[C@@H](CC(C)C)C(=O)N[C@@H](CO)C(=O)N1CCC[C@H]1C(N)=O
B11: [Cys^3(Trityl)]-hGhrelin (peptide)
peptide: GSC(Trt)FLSPEHQRVQQRKESKKPPAKLQPR
B12: [Cys^3(Octyl)]-Ghrelin (1-7)-amide (peptide)
peptide: GSC(Octyl)FLSP-NH2
modifications: N-terminus assumed
SMILES: CCCCCCCCSC[C@H](NC(=O)[C@H](CO)NC(=O)CN)C(=O)N[C@@H](Cc1ccccc1)C(=O)N[C@@H](CC(C)C)C(=O)N[C@@H](CO)C(=O)N1CCC[C@H]1C(N)=O
B13: [Cys^3(S-Heptyl)]-hGhrelin (peptide)
peptide: GSC(S‑heptyl)FLSPEHQRVQQRKESKKPPAKLQPR
B14: [Aib^1,His^2,^DSer^3(Octyl),^DPhe^4,Lys^5]-Ghrelin (1-5)-amide (peptide)
peptide: [Aib]H[dS](Octyl)[dF]K-NH2
modifications: N-terminus assumed
SMILES: CCCCCCCCOC[C@@H](NC(=O)[C@H](Cc1c[nH]cn1)NC(=O)C(C)(C)N)C(=O)N[C@H](Cc1ccccc1)C(=O)N[C@@H](CCCCN)C(N)=O
B15: [Lys^8]-Ghrelin (1-8)-amide (peptide)
peptide: GSS(Octanoyl)FLSPK-NH2
modifications: N-terminus assumed
SMILES: CCCCCCCC(=O)OC[C@H](NC(=O)[C@H](CO)NC(=O)CN)C(=O)N[C@@H](Cc1ccccc1)C(=O)N[C@@H](CC(C)C)C(=O)N[C@@H](CO)C(=O)N1CCC[C@H]1C(=O)N[C@@H](CCCCN)C(N)=O
B16: [^DPhe^4,Lys^5]-Ghrelin (1-5)-amide (peptide)
peptide: GSS(Octanoyl)[dF]K-NH2
modifications: N-terminus assumed
SMILES: CCCCCCCC(=O)OC[C@H](NC(=O)[C@H](CO)NC(=O)CN)C(=O)N[C@H](Cc1ccccc1)C(=O)N[C@@H](CCCCN)C(N)=O
B17: [N-Tyr]-rGhrelin (peptide)
peptide: YGSS(Octanoyl)FLSPEHQKAQQRKESKKPPAKLQPR
B18: [N-Glycyl]-Ghrelin (3-7)-amide (peptide)
peptide: GS(Octanoyl)FLSP-NH2
modifications: N-terminus assumed
SMILES: CCCCCCCC(=O)OC[C@H](NC(=O)CN)C(=O)N[C@@H](Cc1ccccc1)C(=O)N[C@@H](CC(C)C)C(=O)N[C@@H](CO)C(=O)N1CCC[C@H]1C(N)=O
B19: [Lys^5]-Ghrelin (1-5)-amide (peptide)
peptide: GSS(Octanoyl)FK-NH2
modifications: N-terminus assumed
SMILES: CCCCCCCC(=O)OC[C@H](NC(=O)[C@H](CO)NC(=O)CN)C(=O)N[C@@H](Cc1ccccc1)C(=O)N[C@@H](CCCCN)C(N)=O
B20: [Thr^3(Octanoyl)]-hGhrelin (peptide)
peptide: GST(Octanoyl)FLSPEHQRVQQRKESKKPPAKLQPR
B21: [Arg^8]-Ghrelin (1-8)-amide (peptide)
peptide: GSS(Octanoyl)FLSPR-NH2
modifications: N-terminus assumed
SMILES: CCCCCCCC(=O)OC[C@H](NC(=O)[C@H](CO)NC(=O)CN)C(=O)N[C@@H](Cc1ccccc1)C(=O)N[C@@H](CC(C)C)C(=O)N[C@@H](CO)C(=O)N1CCC[C@H]1C(=O)N[C@@H](CCCNC(=N)N)C(N)=O
B22: [Nle^3]-hGhrelin (peptide)
peptide: GSXFLSPEHQRVQQRKESKKPPAKLQPR
modifications: position 3 (X) is norleucine (Nle)
B23: [Asp^3(NH-Heptyl)]-hGhrelin (peptide)
peptide: GSDFLSPEHQRVQQRKESKKPPAKLQPR
modifications: Asp 3 side-chain heptylamide (NH-C7H15)
B24: [Dap^3(Octanoyl)]-hGhrelin (peptide)
peptide: GSXFLSPEHQRVQQRKESKKPPAKLQPR
modifications: position 3 (X) is L-2,3-diaminopropionic acid (Dap) with N-octanoyl side chain (CH2NHCO-C7H15)
B25: [Asp^3(O-Heptyl)]-hGhrelin (peptide)
peptide: GSDFLSPEHQRVQQRKESKKPPAKLQPR
modifications: Asp 3 side-chain heptyl ester (O-C7H15)
B26: [Cys^3(Octyl),^DPhe^4]-Ghrelin (1-7)-amide (peptide)
peptide: GSC(Octyl)[dF]LSP-NH2
modifications: N-terminus assumed
SMILES: CCCCCCCCSC[C@H](NC(=O)[C@H](CO)NC(=O)CN)C(=O)N[C@H](Cc1ccccc1)C(=O)N[C@@H](CC(C)C)C(=O)N[C@@H](CO)C(=O)N1CCC[C@H]1C(N)=O
B27: [His^2]-Ghrelin (1-7)-amide (peptide)
peptide: GHS(Octanoyl)FLSP-NH2
modifications: N-terminus assumed
SMILES: CCCCCCCC(=O)OC[C@H](NC(=O)[C@H](Cc1c[nH]cn1)NC(=O)CN)C(=O)N[C@@H](Cc1ccccc1)C(=O)N[C@@H](CC(C)C)C(=O)N[C@@H](CO)C(=O)N1CCC[C@H]1C(N)=O

biological target: rat GHS-R (GHS receptor) expressed on CHO-GHSR62 cells (rat) (UniProt O08725); assay: cell-based or functional assay
Sequence (O08725 whole entry): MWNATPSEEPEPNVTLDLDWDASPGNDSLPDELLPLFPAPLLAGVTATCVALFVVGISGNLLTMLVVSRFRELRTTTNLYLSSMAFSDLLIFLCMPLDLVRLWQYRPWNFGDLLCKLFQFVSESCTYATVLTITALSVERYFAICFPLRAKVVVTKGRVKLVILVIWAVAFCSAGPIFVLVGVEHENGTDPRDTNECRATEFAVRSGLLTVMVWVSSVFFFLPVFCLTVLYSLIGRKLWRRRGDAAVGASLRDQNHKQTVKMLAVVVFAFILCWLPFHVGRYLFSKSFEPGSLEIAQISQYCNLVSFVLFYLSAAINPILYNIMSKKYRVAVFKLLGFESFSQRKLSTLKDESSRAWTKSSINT

Activity EC50 [nM] | Ca-releasing activity EC50 [nM] | EC50 value [nM] | Binder
> 10000 | – | – | B1
– | 12 | – | B2
11 | – | – | B3
19 | – | – | B4
8.2 | – | 8.2 | B5
– | 24 | – | B6
– | 5.4 | 5.4 | B7
0.91 | – | – | B8
34 | – | – | B9
– | 78 | – | B10
20 | – | – | B11
– | 7.4 | – | B12
1.4 | – | – | B13
38 | – | – | B14
– | 1.1 | – | B15
– | 1700 | – | B16
– | 120 | – | B17
– | 380 | – | B18
– | 10 | – | B19
10 | – | – | B20
– | 1.1 | – | B21
2800 | – | – | B22
11 | – | – | B23
2.6 | – | – | B24
5.1 | – | – | B25
– | 3000 | – | B26
– | 35 | – | B27
